# Source: patent US20150291952, “RNA APTAMER ISOLATION VIA DUAL-CYCLE (RAPID) SELECTION” (CORNELL UNIVERSITY, published 2015)
# B1: C6M1 (ssRNA)
# RNA: GGGAAUGGAUCCACAUCUACGAAUUCGAUCGGUUCCAACGCUCUGUCGCCUAAGUGAACAGAUGAAGAAAAAAUAGCCCAAUAAGAGGCAACAAUCUUUCACUGCAGACUUGACGAAGCUU
# modifications: RNA transcript; SEQ:21 is the random region, assayed RNA also carries both library constant regions (reverse complement of the SEQ:22 flanks) [positions count without the 26-nt 5-prime fixed region]
# Experiments:
# CHK2 [1] = biological target: T1, CHK2 (UniProt O96017 O96017:1-543); test: EMSA; F-EMSA, Hill fit; 25 mM Tris pH 8.0, 10 mM NaCl, 25 mM KCl, 5 mM MgCl2, 10 ug/ml yeast tRNA, room temp; binding to contaminant not ruled out; conditions: tags: hexahistidine; expressed in E. coli BL21(DE3)-RIPL, Ni-NTA, ~90-95% pure; label: 3'-fluorescein (fluorescein 5-thiosemicarbazide)
# Experimental: (§1) The RNA samples were 3′-end labelled with fluorescein 5-thiosemicarbazide (Invitrogen) as described previously (Pagano et al. 2007). 50 μL binding reactions were prepared with 2 nM fluorescently-labelled RNA and decreasing amounts of protein (2000 to 0 nM) in binding buffer containing 0.01% IGEPAL CA630, 10 μg/ml yeast tRNA, and 3 U of SUPERase•In RNase Inhibitor. Reactions were prepared in black 96-well half area microplates (Corning) and incubated at room temperature for 2 hours. The plates were scanned on a Synergy H1 microplate reader (BioTek) using the Ex: 485/20 Em: 528/20 filter set to determine the Fluorescence Polarization (FP). The polarization “P” is determined from the total parallel and perpendicular polarized fluorescence according to:
# (§2) In order to confirm that the two methods had independently enriched the same aptamer, we tested the unambiguous top-ranked SELEX/RAPID candidate for CHK2 binding, hereafter referred to as C6M1. […] The calculated fraction bound curve for the gel shift is also shown in FIG. 6B as the solid line (left axis). […] In order to ensure that the observed binding was not a gel artefact, we also performed a Fluorescence Polarization (FP) assay. […]
# CHK2 [2] = biological target: T1, CHK2; test: FP; same samples as F-EMSA, Hill fit; 5 mM MgCl2, yeast tRNA, room temp; conditions: tags: hexahistidine; expressed in E. coli BL21(DE3)-RIPL, Ni-NTA, ~90-95% pure; label: 3'-fluorescein (fluorescein 5-thiosemicarbazide)
# Experimental: as §1, §2
# T1 sequence (O96017 whole entry, one chain of several): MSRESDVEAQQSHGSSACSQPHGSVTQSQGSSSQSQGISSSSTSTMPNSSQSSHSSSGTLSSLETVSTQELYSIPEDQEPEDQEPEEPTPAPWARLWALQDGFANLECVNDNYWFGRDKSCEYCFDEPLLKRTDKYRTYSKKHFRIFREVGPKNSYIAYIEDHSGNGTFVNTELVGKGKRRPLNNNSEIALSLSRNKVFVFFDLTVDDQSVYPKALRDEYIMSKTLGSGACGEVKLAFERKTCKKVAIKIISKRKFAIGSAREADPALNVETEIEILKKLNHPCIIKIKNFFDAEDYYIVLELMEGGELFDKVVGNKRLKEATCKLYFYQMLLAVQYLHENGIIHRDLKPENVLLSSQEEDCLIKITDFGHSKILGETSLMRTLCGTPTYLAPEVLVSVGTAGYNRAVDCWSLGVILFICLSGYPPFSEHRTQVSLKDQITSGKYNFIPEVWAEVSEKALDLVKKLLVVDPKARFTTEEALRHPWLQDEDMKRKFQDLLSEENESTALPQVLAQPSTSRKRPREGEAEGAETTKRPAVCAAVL
binder,measurement,setting,value
B1,Kd,CHK2 [1],180 nM
same,Kd,CHK2 [2],299 nM
